B1: minF1; a variant is named by its letters at N, in order (parent)
chain: GAGACCGCAACTGAAAAGTTGTTNNNNAANNNNGGNTNNATTTCTGCACGTAGAAGCAAAAGGC

Variants of: B1
Test: fraction ligated after 30 min (ligated reads / total reads); higher = more ligase activity
Details: with F1*subA RNA substrate (template-directed ligation), 42 °C
Description: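 Chip-synthesised pool of minF1 ligase ribozyme variants (single and double substitutions, single to quadruple deletions, bulge and P2 designed variants) was transcribed with T7 and reacted as a pool with excess substrate F1*subA for 30 min at 42 C in 50 mM EPPS pH 8.5, 25 mM MgCl2. Ligated and unligated RNAs were separated by PAGE, barcoded by RT and deep sequenced; fraction ligated = ligated reads / total reads, relative activity = FL / FL of wild-type minF1 (0.76); sequencing FL correlated with PAGE (R2 = 0.98). Sequences are the DNA template of the ribozyme.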
GAGACCGCAACTGAAAAGTTGTATCAAAATGGAGGGTTAATTTCTGCACGTAGAAGCAAAAGGC [TCAATGGAGTA T23A] gave a fraction ligated of 0.00206. GAGACCGCAACTGAAAAGTTGTTACAAAATGGATGGGTTGTTTCTGCACGTAGAAGCAAAAGGC [ACAATGGAGTT G34T T37G A40G] was tested, and the fraction ligated was 0.00101. Work on GAGACCGCAACTGAAAAGTTGTATCAAAATGGTGGGTTAATTTCTGCACGTAGAAGCAAAAGGC [TCAATGGTGTA T23A] yielded a fraction ligated of 0.00153. GAGACCGCAACTGAAAAGTTGTATCAAAATGGTGGGTTGATTTCTGCACGTAGAAGCAAAAGGC [TCAATGGTGTG T23A] was tested, and the fraction ligated was 0.00466. Variant GAGACCGCAACTGAAAAGTTGTATCAAAATGATGGGTTGATTTCTGCACGTAGAAGCAAAAGGC [TCAATGATGTG T23A] has a fraction ligated of 0.00503. GAGACCGCAACTGAAAAGTTGTTACAGAAAGATGGTTGAATTTCTGCACGTAGAAGCAAAAGGC [ACAGAGATTGA] gave a fraction ligated of 0.00246. GAGACCGCAACTGAAAAGTTGTTTCAAAATGATGGGTTAATTTCTGCACGTAGAAGCAAAAGGC [TCAATGATGTA] was tested, and the fraction ligated was 0.00254. GAGACCGCAACTGAAAAGTTGTTTCAAAATGATGGGTTGATTTCTGCACGTAGAAGCAAAAGGC [TCAATGATGTG] was tested, and the fraction ligated was 0.0049. For GAGACCGCAACTGAAAAGTTGTATCAGAAAGGATGGTTAATTTCTGCACGTAGAAGCAAAAGGC [TCAGAGGAGTA T23A G34T], the fraction ligated was 0.0014. Work on GAGACCGCAACTGAAAAGTTGTATCAAAATGGATGGTTAATTTCTGCACGTAGAAGCAAAAGGC [TCAATGGAGTA T23A G34T] yielded a fraction ligated of 0.0178. GAGACCGCAACTGAAAAGTTGTTTCAGAAAGAGGGTTGAATTTCTGCACGTAGAAGCAAAAGGC [TCAGAGAGTGA] was tested, and the fraction ligated was 0.00182. GAGACCGCAACTGAAAAGTTGTTACAAAATGGTGGGTTGATTTCTGCACGTAGAAGCAAAAGGC [ACAATGGTGTG] was tested, and the fraction ligated was 0.00545. GAGACCGCAACTGAAAAGTTGTTACAAAATGGTGGGTTAATTTCTGCACGTAGAAGCAAAAGGC [ACAATGGTGTA] showed a fraction ligated of 0.00264. Work on GAGACCGCAACTGAAAAGTTGTTTCAAAATGTGGGTTGAATTTCTGCACGTAGAAGCAAAAGGC [TCAATGTGTGA] yielded a fraction ligated of 0.00236. With GAGACCGCAACTGAAAAGTTGTTACAAAATGGTGGTTGAATTTCTGCACGTAGAAGCAAAAGGC [ACAATGGTTGA] the fraction ligated was 0.00142. Work on GAGACCGCAACTGAAAAGTTGTTACAAAATGGAGGGTTGATTTCTGCACGTAGAAGCAAAAGGC [ACAATGGAGTG] yielded a fraction ligated of 0.00309. With GAGACCGCAACTGAAAAGTTGTTACAAAATGGAGGGTTAATTTCTGCACGTAGAAGCAAAAGGC [ACAATGGAGTA] the fraction ligated was 0.00362. GAGACCGCAACTGAAAAGTTGTATCAAATGGTGGGTTGAATTTCTGCACGTAGAAGCAAAAGGC [TCAAGGTGTGA T23A A29T] showed a fraction ligated of 0.00393. GAGACCGCAACTGAAAAGTTGTATCAAAATGGATGGGTTGTTTCTGCACGTAGAAGCAAAAGGC [TCAATGGAGTT T23A G34T T37G A40G] showed a fraction ligated of 0.00124. For GAGACCGCAACTGAAAAGTTGTATCAGAAAGAGGGTTGAATTTCTGCACGTAGAAGCAAAAGGC [TCAGAGAGTGA T23A], the fraction ligated was 0.0017. With GAGACCGCAACTGAAAAGTTGTTTCAAAATGGAGGTTGAATTTCTGCACGTAGAAGCAAAAGGC [TCAATGGATGA] the fraction ligated was 0.00193. Work on GAGACCGCAACTGAAAAGTTGTTTCAGAAAGATGGTTGAATTTCTGCACGTAGAAGCAAAAGGC [TCAGAGATTGA] yielded a fraction ligated of 0.00355. GAGACCGCAACTGAAAAGTTGTTACAAAATGGAGGTTGAATTTCTGCACGTAGAAGCAAAAGGC [ACAATGGATGA] was tested, and the fraction ligated was 0.00232. GAGACCGCAACTGAAAAGTTGTTACAGAAAGAGGGTTGAATTTCTGCACGTAGAAGCAAAAGGC [ACAGAGAGTGA] showed a fraction ligated of 0.00105. For GAGACCGCAACTGAAAAGTTGTTTCAAAATGGTGGTTGAATTTCTGCACGTAGAAGCAAAAGGC [TCAATGGTTGA], the fraction ligated was 0.00179. In the case of GAGACCGCAACTGAAAAGTTGTTACAAAATGGATGGGTTATTTCTGCACGTAGAAGCAAAAGGC [ACAATGGAGTT G34T T37G], the fraction ligated is reported as 0.00166. Variant GAGACCGCAACTGAAAAGTTGTTACAGAAAGATGGGTTGATTTCTGCACGTAGAAGCAAAAGGC [ACAGAGATGTG] has a fraction ligated of 0.00764. With GAGACCGCAACTGAAAAGTTGTTACAGAAAGATGGGTTAATTTCTGCACGTAGAAGCAAAAGGC [ACAGAGATGTA] the fraction ligated was 0.00268. Work on GAGACCGCAACTGAAAAGTTGTATCAGAAAGGAGGGTTAATTTCTGCACGTAGAAGCAAAAGGC [TCAGAGGAGTA T23A] yielded a fraction ligated of 0.00164. For GAGACCGCAACTGAAAAGTTGTTACAAAATGATGGTTGAATTTCTGCACGTAGAAGCAAAAGGC [ACAATGATTGA], the fraction ligated was 0.00348. For GAGACCGCAACTGAAAAGTTGTTTCAAAATGGATGGGTTGTTTCTGCACGTAGAAGCAAAAGGC [TCAATGGAGTT G34T T37G A40G], the fraction ligated was 0.00127. GAGACCGCAACTGAAAAGTTGTATCAAAATGGGGGTTGAATTTCTGCACGTAGAAGCAAAAGGC [TCAATGGGTGA T23A] showed a fraction ligated of 0.00158. GAGACCGCAACTGAAAAGTTGTTTCAAAATGGTGGGTTAATTTCTGCACGTAGAAGCAAAAGGC [TCAATGGTGTA] was tested, and the fraction ligated was 0.00227. Work on GAGACCGCAACTGAAAAGTTGTTTCAAAATGGTGGGTTGATTTCTGCACGTAGAAGCAAAAGGC [TCAATGGTGTG] yielded a fraction ligated of 0.00437. GAGACCGCAACTGAAAAGTTGTATCAAAATGGAGGTTGAATTTCTGCACGTAGAAGCAAAAGGC [TCAATGGATGA T23A] showed a fraction ligated of 0.00363. For GAGACCGCAACTGAAAAGTTGTATCAGAAAGGATGGTTGATTTCTGCACGTAGAAGCAAAAGGC [TCAGAGGAGTG T23A G34T], the fraction ligated was 0.00498. GAGACCGCAACTGAAAAGTTGTTTCAAAATGGATGGTTGATTTCTGCACGTAGAAGCAAAAGGC [TCAATGGAGTG G34T] showed a fraction ligated of 0.0438. GAGACCGCAACTGAAAAGTTGTATCAAAATGAGGGTTGAATTTCTGCACGTAGAAGCAAAAGGC [TCAATGAGTGA T23A] gave a fraction ligated of 0.00315. With GAGACCGCAACTGAAAAGTTGTATCAGAAAATGGGTTGAATTTCTGCACGTAGAAGCAAAAGGC [TCAGAATGTGA T23A] the fraction ligated was 0.00396. In the case of GAGACCGCAACTGAAAAGTTGTTTCAAAATGGATGGTTAATTTCTGCACGTAGAAGCAAAAGGC [TCAATGGAGTA G34T], the fraction ligated is reported as 0.0216. GAGACCGCAACTGAAAAGTTGTTACAAAATGTGGGTTGAATTTCTGCACGTAGAAGCAAAAGGC [ACAATGTGTGA] showed a fraction ligated of 0.00146. GAGACCGCAACTGAAAAGTTGTTACAAAATGAGGGTTGAATTTCTGCACGTAGAAGCAAAAGGC [ACAATGAGTGA] gave a fraction ligated of 0.000748.

From the supplement of paper PMC6755084
